# Source: patent US20240270846A1 (published 2024)
# “And” between values parts separate entries of the source, which are not always exact repeats. Equal values may be shown once.
# Assays:
# [1] = target: T1, biotinylated CD3 epsilon epitope peptide (UniProt P07766 22-48, biotinylated); test: SPR (Biacore); biotinylated CD3 epsilon epitope peptide on chip via streptavidin, antibody as analyte
# T1 chain: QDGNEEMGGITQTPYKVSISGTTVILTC
# [2] = target: T2, biotin-labeled human CD137 fused to human IgG1 Fc fragment (human CD137-Fc) (human, biotin-labeled); test: bead ELISA on biotin-human CD137-Fc, 250 ng IgG; free CD3 epsilon 62.5 pmol as competitor
# T2 construct: also called biotin-human CD137-Fc
# [3] = target: T2, biotin-labeled human CD137 fused to …; test: bead ELISA on biotin-human CD137-Fc, 250 ng IgG; free human IgG1 Fc 62.5 pmol as control competitor
# [4] = target: T2, biotin-labeled human CD137 fused to …; test: bead ELISA on biotin-human CD137-Fc; decrease of signal with free CD3 epsilon as competitor against free Fc
# [5] = target: T3, biotin-labeled human CD137 fused to human IgG1 Fc fragment (human, biotin-labeled); test: bead ELISA, IgG on biotin-human CD137-Fc; signal with free CD3e 62.5 pmol against free Fc 62.5 pmol
# T3 construct: also called human CD137-Fc; biotin-human CD137-Fc
# [6] = target: T3, biotin-labeled human CD137 fused to …; test: bead ELISA (chemiluminescence), IgG on biotin-human CD137-Fc on streptavidin beads; competitor free CD3 epsilon 62.5 pmol
# [7] = target: T3, biotin-labeled human CD137 fused to …; test: bead ELISA (chemiluminescence), IgG on biotin-human CD137-Fc on streptavidin beads; control competitor free human Fc 62.5 pmol
binder,measurement,setting,value
"CE115HA000 V11L/D72A/L78I/D101Q with GGSGGS inserted between Kabat positions 99 and 100, one-arm antibody (antibody, V domains shown) VH: QVQLVESGGGLVQPGRSLRLSCAASGFTFSNAWMHWVRQAPGKGLEWVAQIKAKSNNYATYYAESVKGRFTISRADSKNSIYLQMNSLKTEDTAVYYCRYVHYGAGGSGGSYYGVQAWGQGTTVTVSS VL: DIVMTQSPLSLPVTPGEPASISCRSSQSLVHSNRNTYLHWYQQKPGQAPRLLIYKVSNRFSGVPDRFSGSGSGTDFTLKISRVEAEDVGVYYCGQGTQVPYTFGQGTKLEIKR",Kd,[1],34.6 nM and 31.1 nM
"CE115HA000 V11L/D72A/L78I/D101Q with GGSGGGS inserted between Kabat positions 99 and 100, one-arm antibody (antibody, V domains shown) VH: QVQLVESGGGLVQPGRSLRLSCAASGFTFSNAWMHWVRQAPGKGLEWVAQIKAKSNNYATYYAESVKGRFTISRADSKNSIYLQMNSLKTEDTAVYYCRYVHYGAGGSGGGSYYGVQAWGQGTTVTVSS VL: DIVMTQSPLSLPVTPGEPASISCRSSQSLVHSNRNTYLHWYQQKPGQAPRLLIYKVSNRFSGVPDRFSGSGSGTDFTLKISRVEAEDVGVYYCGQGTQVPYTFGQGTKLEIKR",Kd,[1],43.5 nM and 34.3 nM
"CE115HA000 V11L/D72A/L78I/D101Q with GGSGGSGGS inserted between Kabat positions 99 and 100, one-arm antibody (antibody, V domains shown) VH: QVQLVESGGGLVQPGRSLRLSCAASGFTFSNAWMHWVRQAPGKGLEWVAQIKAKSNNYATYYAESVKGRFTISRADSKNSIYLQMNSLKTEDTAVYYCRYVHYGAGGSGGSGGSYYGVQAWGQGTTVTVSS VL: DIVMTQSPLSLPVTPGEPASISCRSSQSLVHSNRNTYLHWYQQKPGQAPRLLIYKVSNRFSGVPDRFSGSGSGTDFTLKISRVEAEDVGVYYCGQGTQVPYTFGQGTKLEIKR",Kd,[1],43.9 nM and 35.4 nM
"CE115HA000 V11L/D72A/L78I/D101Q without insertion, one-arm antibody (antibody, human IgG1, kappa, L234A L235A, N297A, name in Kabat numbering, one-arm antibody; also called No insertion) heavy: QVQLVESGGGLVQPGRSLRLSCAASGFTFSNAWMHWVRQAPGKGLEWVAQIKAKSNNYATYYAESVKGRFTISRADSKNSIYLQMNSLKTEDTAVYYCRYVHYGAYYGVQAWGQGTTVTVSSASTKGPSVFPLAPSSKSTSGGTAALGCLVKDYFPEPVTVSWNSGALTSGVHTFPAVLQSSGLYSLSSVVTVPSSSLGTQTYICNVNHKPSNTKVDKKVEPKSCDKTHTCPPCPAPEAAGGPSVFLFPPKPKDTLMISRTPEVTCVVVDVSHEDPEVKFNWYVDGVEVHNAKTKPREEQYASTYRVVSVLTVLHQDWLNGKEYKCKVSNKALPAPIEKTISKAKGQPREPQVYTLPPSRCELTKNQVSLSCAVKGFYPSDIAVEWESNGQPENNYKTTPPVLDSDGSFFLVSKLTVDKSRWQQGNVFSCSVMHEALHNHYTQKSLSLSPDYKDDDDK EPKSSDKTHTCPPCPAPELLGGPSVFLFPPKPKDTLMISRTPEVTCVVVDVSHEDPEVKFNWYVDGVEVHNAKTKPREEQYNSTYRVVSVLTVLHQDWLNGKEYKCKVSNKALPAPIEKTISKAKGQPREPQVCTLPPSRDELTKNQVSLWCLVKGFYPSDIAVEWESNGQPENNYKTTPPVLDSDGSFFLYSKLTVDKSRWQQGNVFSCSVMHEALHNRYTQKSLSLSP light: DIVMTQSPLSLPVTPGEPASISCRSSQSLVHSNRNTYLHWYQQKPGQAPRLLIYKVSNRFSGVPDRFSGSGSGTDFTLKISRVEAEDVGVYYCGQGTQVPYTFGQGTKLEIKRTVAAPSVFIFPPSDEQLKSGTASVVCLLNNFYPREAKVQWKVDNALQSGNSQESVTEQDSKDSTYSLSSTLTLSKADYEKHKVYACEVTHQGLSSPVTKSFNRGEC",Kd,[1],6.96 nM
"CE115HA000 (unaltered), one-arm antibody with GLS3000 (antibody, human IgG1, kappa, L234A L235A, N297A) heavy: QVQLVESGGGVVQPGRSLRLSCAASGFTFSNAWMHWVRQAPGKGLEWVAQIKAKSNNYATYYAESVKGRFTISRDDSKNSLYLQMNSLKTEDTAVYYCRYVHYGAYYGVDAWGQGTTVTVSSASTKGPSVFPLAPSSKSTSGGTAALGCLVKDYFPEPVTVSWNSGALTSGVHTFPAVLQSSGLYSLSSVVTVPSSSLGTQTYICNVNHKPSNTKVDKKVEPKSCDKTHTCPPCPAPEAAGGPSVFLFPPKPKDTLMISRTPEVTCVVVDVSHEDPEVKFNWYVDGVEVHNAKTKPREEQYASTYRVVSVLTVLHQDWLNGKEYKCKVSNKALPAPIEKTISKAKGQPREPQVYTLPPSRCELTKNQVSLSCAVKGFYPSDIAVEWESNGQPENNYKTTPPVLDSDGSFFLVSKLTVDKSRWQQGNVFSCSVMHEALHNHYTQKSLSLSPDYKDDDDK EPKSSDKTHTCPPCPAPELLGGPSVFLFPPKPKDTLMISRTPEVTCVVVDVSHEDPEVKFNWYVDGVEVHNAKTKPREEQYNSTYRVVSVLTVLHQDWLNGKEYKCKVSNKALPAPIEKTISKAKGQPREPQVCTLPPSRDELTKNQVSLWCLVKGFYPSDIAVEWESNGQPENNYKTTPPVLDSDGSFFLYSKLTVDKSRWQQGNVFSCSVMHEALHNRYTQKSLSLSP light: DIVMTQSPLSLPVTPGEPASISCRSSQSLVHSNRNTYLHWYQQKPGQAPRLLIYKVSNRFSGVPDRFSGSGSGTDFTLKISRVEAEDVGVYYCGQGTQVPYTFGQGTKLEIKRTVAAPSVFIFPPSDEQLKSGTASVVCLLNNFYPREAKVQWKVDNALQSGNSQESVTEQDSKDSTYSLSSTLTLSKADYEKHKVYACEVTHQGLSSPVTKSFNRGEC",Kd,[1],110 nM
"dBBDu193/L127 (antibody, V domains shown, also called dBBDu_193 / dBBDu.L127) VH: QVQLVESGGGLVQPGRSLRLSCAASGFTFSNAWMHWVRQAPGKGLEWVAQIKDRSNQYATYYAPSVKGRFTISRDDSKNSIYLQMNSLKTEDTAVYYCHYVHYSAASTLLPSFGVDAWGQGTTVTVSS VL: DIVMTQSPLSLPVTPGEPASISCRASEELLHINRHIFLHWYQQKPGQAPRLLIYKVYNRFTGVPDRFSGSGSGTDFTLKISRVEAEDVGVYYCAQGTSVPFTFGQGTKLEIK",ELISA signal with Free CD3e 62.5 pmol,[2],2470
same,ELISA signal with Free Fc 62.5 pmol,[3],6080
same,Signal decrease,[4],59.4%
"dBBDu189/L126 (antibody, V domains shown) VH: QVQLVESGGGLVQPGRSLRLSCAASGFTFSNAWMHWVRQAPGKGLEWIAQIKDRSNQYATYYAPSVKGRFTISRDDSKNSIYLQMNSLKTEDTAVYYCHYVHYAQASSLLPSFGVDAWGQGTTVTVSS VL: DIVMTQSPLSLPVTPGEPASISCRTSEELLHINRYIFLHWYQQKPGQAPRLLIYKVQNRFSGVPDRFSGSGSGTDFTLKISRVEAEDVGVYYCAQGSAVPFTFGQGTKLEIK",ELISA signal with Free CD3e 62.5 pmol,[2],9750
same,ELISA signal with Free Fc 62.5 pmol,[3],75100
same,Signal decrease,[4],87%
"dBBDu193/L132 (antibody, V domains shown, also called dBBDu_193 / dBBDu.L132) VH: QVQLVESGGGLVQPGRSLRLSCAASGFTFSNAWMHWVRQAPGKGLEWVAQIKDRSNQYATYYAPSVKGRFTISRDDSKNSIYLQMNSLKTEDTAVYYCHYVHYSAASTLLPSFGVDAWGQGTTVTVSS VL: DIVMTQSPLSLPVTPGEPASISCQTSEELVHINRFIFLHWYQQKPGQAPRLLIYKVSNRFSGVPDRFSGSGSGTDFTLKISRVEAEDVGVYYCAQGTSVPFTFGQGTKLEIK",ELISA signal with Free CD3e 62.5 pmol,[2],10400
same,ELISA signal with Free Fc 62.5 pmol,[3],116000
same,Signal decrease,[4],91%
"dBBDu_H115/L014 (antibody, human IgG1, V domains shown, Full length IgG (human IgG1 CH1-Fc heavy chain, kappa light chain)) VH: QVQLVESGGGLVQPGRSLRLSCAASGFTFSNAWMHWVRQAPGKGLEWVAQIKDKANSYNTYYAPSVKGRFTISRDDSKNSIYLQMNSLKTEDTAVYYCRYVHYGSSYGFLFAGYGVDAWGQGTTVTVSS VL: DIVMTQSPLSLPVTPGEPASISCTSSQSLLHQNRNTYLHWYQQKPGQAPRLLIYKVSNRFNGVPDRFSGSGSGTDFTLKISRVEAEDVGVYYCAQGTANPFTFGQGTKLEIK",Signal decrease,[5],97.9%
same,ELISA signal with Free CD3e 62.5 pmol,[6],1510
same,ELISA signal with Free Fc 62.5 pmol,[7],72100
"dBBDu_H115/L016 (antibody, human IgG1, V domains shown, Full length IgG (human IgG1 CH1-Fc heavy chain, kappa light chain)) VH: QVQLVESGGGLVQPGRSLRLSCAASGFTFSNAWMHWVRQAPGKGLEWVAQIKDKANSYNTYYAPSVKGRFTISRDDSKNSIYLQMNSLKTEDTAVYYCRYVHYGSSYGFLFAGYGVDAWGQGTTVTVSS VL: DIVMTQSPMSLPVTPGEPASISCQSSESLLHANRNTYLHWYQQKPGQAPRLLIYKVSNRFNGVPDRFSGSGSGTDFTLKISRVEAEDVGVYYCAQGTANPYTFGQGTKLEIK",Signal decrease,[5],96.7%
same,ELISA signal with Free CD3e 62.5 pmol,[6],1540
same,ELISA signal with Free Fc 62.5 pmol,[7],46800
"dBBDu_H115/L035 (antibody, human IgG1, V domains shown, Full length IgG (human IgG1 CH1-Fc heavy chain, kappa light chain)) VH: QVQLVESGGGLVQPGRSLRLSCAASGFTFSNAWMHWVRQAPGKGLEWVAQIKDKANSYNTYYAPSVKGRFTISRDDSKNSIYLQMNSLKTEDTAVYYCRYVHYGSSYGFLFAGYGVDAWGQGTTVTVSS VL: DIVMTQSPLSLPVTPGEPASISCAASESLLHTNRNTYLHWYQQKPGQAPRLLIYKVSNRFSGVPDRFSGSGSGTDFTLKISRVEAEDVGVYYCAQGTQSPFTFGQGTKLEIK",Signal decrease,[5],97.9%
same,ELISA signal with Free CD3e 62.5 pmol,[6],1470
same,ELISA signal with Free Fc 62.5 pmol,[7],70600
